Results published in patent US20220275083A1 (EUTILEX, published 2022).
Substitutions are numbered along the chain they refer to. In names and notes the source's numbering stands.

B1: bispecific epitope binding protein S03 (bispecific antibody)
chain: DIVMTQSPAFLSVTPGEKVTITCRASQTISDYLHWYQQKPDQAPKLLIKYASQSISGIPSRFSGSGSGTDFTFTISSLEAEDAATYYCQDGHSWPPTFGQGTKLEIKGSTSGSGKPGSGEGSTKGQVQLVQSGAEVKKPGASVKLSCKASGYTFSSYWMHWVRQAPGQGLEWIGEINPGNGHTNYNEKFKSRVTMTRDTSTSTAYMELSSLRSEDTAVYYCARSFKTARAFAYWGQGTLVTVSSASGGGGSGGGGSDKTHTCPPCPAPEAAGGPSVFLFPPKPKDTLMISRTPEVTCVVVDVSHEDPEVKFNWYVDGVEVHNAKTKPREEQYNSTYRVVSVLTVLHQDWLNGKEYKCAVSNKALPAPIEKTISKAKGQPREPQVYTLPPSREEMTKNQVSLTCLVKGFYPSDIAVEWESNGQPENNYKTTPPVLDSDGSFFLYSKLTVDKSRWQQGNVFSCSVMHEALHNHYTQKSLSLSPGGGGGSGGGGSFLESPDRPWNAPTFSPALLLVAEGDNATFTCSFSNASESFHVVWHRESPSGQTDTLAAFPEDRSQPGQDHRFRVTRLPNGRDFHMSVVRAQRNDSGTYVCGVISLAPKIQIKESLRAELRVTERRAEVPTAHPSPSPRPAGQFQTLVVG
notes: Anti-4-1BB 94kvt scFv x euPD-1 with hinge and engineered IgG1 Fc (L234A, L235A, K322A, D356E, L358M)
B2: S13 (PD-L1 null variant of S03) (bispecific antibody)
chain: B1 chain with T547A, I595A, I603A
B3: bispecific epitope binding protein S02 (bispecific antibody)
chain: QVQLVQSGAEVKKPGASVKLSCKASGYTFSSYWMHWVRQAPGQGLEWIGEINPGNGHTNYNEKFKSRVTMTRDTSTSTAYMELSSLRSEDTAVYYCARSFKTARAFAYWGQGTLVTVSSGSTSGSGKPGSGEGSTKGDIVMTQSPAFLSVTPGEKVTITCRASQTISDYLHWYQQKPDQAPKLLIKYASQSISGIPSRFSGSGSGTDFTFTISSLEAEDAATYYCQDGHSWPPTFGQGTKLEIKASGGGGSGGGGSDKTHTCPPCPAPEAAGGPSVFLFPPKPKDTLMISRTPEVTCVVVDVSHEDPEVKFNWYVDGVEVHNAKTKPREEQYNSTYRVVSVLTVLHQDWLNGKEYKCAVSNKALPAPIEKTISKAKGQPREPQVYTLPPSREEMTKNQVSLTCLVKGFYPSDIAVEWESNGQPENNYKTTPPVLDSDGSFFLYSKLTVDKSRWQQGNVFSCSVMHEALHNHYTQKSLSLSPGGGGGSGGGGSFLESPDRPWNAPTFSPALLLVAEGDNATFTCSFSNASESFHVVWHRESPSGQTDTLAAFPEDRSQPGQDHRFRVTRLPNGRDFHMSVVRAQRNDSGTYVCGVISLAPKIQIKESLRAELRVTERRAEVPTAHPSPSPRPAGQFQTLVVGGGGGSGGGGSGGGGSFLESPDRPWNAPTFSPALLLVAEGDNATFTCSFSNASESFHVVWHRESPSGQTDTLAAFPEDRSQPGQDHRFRVTRLPNGRDFHMSVVRAQRNDSGTYVCGVISLAPKIQIKESLRAELRVTERRAEVPTAHPSPSPRPAGQFQTLVVG
notes: Anti-4-1BB 94kvt scFv x euPD-1 with hinge and engineered IgG1 Fc
B4: bispecific epitope binding protein S10 (bispecific antibody)
heavy: QVQLVQSGAEVKKPGASVKLSCKASGYTFSSYWMHWVRQAPGQGLEWIGEINPGNGHTNYNEKFKSRVTMTRDTSTSTAYMELSSLRSEDTAVYYCARSFKTARAFAYWGQGTLVTVSSASTKGPSVFPLAPSSKSTSGGTAALGCLVKDYFPEPVTVSWNSGALTSGVHTFPAVLQSSGLYSLSSVVTVPSSSLGTQTYICNVNHKPSNTKVDKKVEPKSCDKTHTCPPCPAPEAAGGPSVFLFPPKPKDTLMISRTPEVTCVVVDVSHEDPEVKFNWYVDGVEVHNAKTKPREEQYNSTYRVVSVLTVLHQDWLNGKEYKCAVSNKALPAPIEKTISKAKGQPREPQVYTLPPSREEMTKNQVSLTCLVKGFYPSDIAVEWESNGQPENNYKTTPPVLDSDGSFFLYSKLTVDKSRWQQGNVFSCSVMHEALHNHYTQKSLSLSPGGSTSGSGKPGSGEGSTKGSFLESPDRPWNAPTFSPALLLVAEGDNATFTCSFSNASESFHVVWHRESPSGQTDTLAAFPEDRSQPGQDHRFRVTRLPNGRDFHMSVVRAQRNDSGTYVCGVISLAPKIQIKESLRAELRVTERRAEVPTAHPSPSPRPAGQFQTLVVG
light: DIVMTQSPAFLSVTPGEKVTITCRASQTISDYLHWYQQKPDQAPKLLIKYASQSISGIPSRFSGSGSGTDFTFTISSLEAEDAATYYCQDGHSWPPTFGQGTKLEIKRTVAAPSVFIFPPSDEQLKSGTASVVCLLNNFYPREAKVQWKVDNALQSGNSQESVTEQDSKDSTYSLSSTLTLSKADYEKHKVYACEVTHQGLSSPVTKSFNRGEC
notes: engineered IgG1 Fc; carries euPD-1

How the values were obtained:
[1] = target: T1, PD-L1 antigen (SinoBiologics, Cat. No. 10084-H08H) (human, UniProt Q9NZQ7 19-238); assay: SPR, Biacore T200; comparison of S03 with human PD-1-Fc
T1 construct: Bought antigen; also called human PD-L1

4-1BB antigen (abclon) = target: T2, 4-1BB antigen (abclon) (UniProt Q07011 24-186); assay: SPR, Biacore T200; variant captured on CM5, 4-1BB antigen injected
T2 construct: Bought antigen
Description: (§1) Affinity to 4-1BB was determined using the bispecific epitope binding protein variants diluted to 5 μg/ml and then fixed to CM5 chip (Cytiva, BR-1005-30) with human capture (Cytiva, Cat. No. BR-1008-39). The 4-1BB antigen (abclon) was injected at concentrations of 100, 50, 25, 12.5, 6.25, and 3.125 nM, the association time was set to 150 seconds, and the dissociation time was set to 240 seconds. Biacore T200 (cytiva) was used as the analysis equipment.

[2] = target: T1, PD-L1 antigen (SinoBiologics, Cat. No. …); assay: SPR, Biacore T200; variant captured on CM5, PD-L1 antigen injected
Description: as §1
(§2) Affinity to PD-L1 was determined using the bispecific epitope binding protein variants diluted to 10 μg/ml and then fixed to CM5 chip with human capture.

[3] = target: T1, PD-L1 antigen (SinoBiologics, Cat. No. …); assay: SPR, Biacore T200; S03 captured on CM5, PD-L1 antigen injected (same values as Table 2)
Description: as §1, §2

[4] = target: T3, biotinylated PD-L2 (SinoBiologics, Cat. No. 10292-H08H-B) (UniProt Q9BQ51 20-219, biotinylated); assay: ELISA, S03 coated in 4-fold dilutions up to 0.1 ug/ml, biotinylated PD-L2 0.1 ug/ml, avidin-HRP
T3 construct: Bought antigen
T3 sequence (looked up): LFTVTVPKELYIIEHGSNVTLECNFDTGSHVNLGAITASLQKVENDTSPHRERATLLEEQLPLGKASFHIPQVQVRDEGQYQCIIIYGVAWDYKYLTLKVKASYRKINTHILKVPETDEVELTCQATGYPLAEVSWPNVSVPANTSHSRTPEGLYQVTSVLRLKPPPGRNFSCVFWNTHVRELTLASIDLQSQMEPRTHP

[5] = target: T4, biotinylated C1q (comp Tech, Cat. No. A099) protein (UniProt P02745 23-245; P02746 28-253; P02747 29-245, biotinylated (chain not stated)); assay: C1q ELISA, S03 coated at 75 nM, biotinylated C1q titrated in 2-fold steps from 2 ug/ml, avidin-HRP
T4 construct: Bought C1q, biotinylated with a kit

[6] = target: T1, PD-L1 antigen (SinoBiologics, Cat. No. …); assay: SPR, Biacore T200; S03 captured on CM5, PD-L1 antigen injected (same values as Table 2); Table 3, comparison with natural PD1-Fc
[7] = target: T1, PD-L1 antigen (SinoBiologics, Cat. No. …); assay: dual antigen ELISA: PD-L1 coated, S03 titrated, detected with biotinylated 4-1BB and avidin-HRP (signal needs both antigens)
[8] = target: T1, PD-L1 antigen (SinoBiologics, Cat. No. …); assay: ELISA, PD-L1 antigen coated, anti-human IgG Fc-HRP detection, 11 points

T1 sequence (Q9NZQ7 19-238 limits assumed): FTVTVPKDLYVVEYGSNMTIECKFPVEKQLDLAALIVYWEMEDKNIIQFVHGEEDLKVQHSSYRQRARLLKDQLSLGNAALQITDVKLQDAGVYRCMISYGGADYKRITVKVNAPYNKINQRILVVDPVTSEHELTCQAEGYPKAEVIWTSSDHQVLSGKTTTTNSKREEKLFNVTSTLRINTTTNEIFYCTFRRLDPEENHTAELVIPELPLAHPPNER
T2 sequence (Q07011 24-186): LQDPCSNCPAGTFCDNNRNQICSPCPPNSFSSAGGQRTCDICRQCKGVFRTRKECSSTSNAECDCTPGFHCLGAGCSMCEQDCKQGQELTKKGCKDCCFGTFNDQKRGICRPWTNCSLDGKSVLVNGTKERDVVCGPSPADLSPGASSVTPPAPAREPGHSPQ
T4 sequence (P02745 23-245, chain 1 of 3): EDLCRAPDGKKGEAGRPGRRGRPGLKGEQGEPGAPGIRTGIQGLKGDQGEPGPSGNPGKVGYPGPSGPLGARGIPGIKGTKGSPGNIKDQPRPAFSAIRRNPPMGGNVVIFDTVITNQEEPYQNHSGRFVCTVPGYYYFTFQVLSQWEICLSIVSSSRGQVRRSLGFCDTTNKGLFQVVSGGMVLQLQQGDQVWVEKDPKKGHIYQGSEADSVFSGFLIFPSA
T4 sequence (P02746 28-253, chain 2 of 3): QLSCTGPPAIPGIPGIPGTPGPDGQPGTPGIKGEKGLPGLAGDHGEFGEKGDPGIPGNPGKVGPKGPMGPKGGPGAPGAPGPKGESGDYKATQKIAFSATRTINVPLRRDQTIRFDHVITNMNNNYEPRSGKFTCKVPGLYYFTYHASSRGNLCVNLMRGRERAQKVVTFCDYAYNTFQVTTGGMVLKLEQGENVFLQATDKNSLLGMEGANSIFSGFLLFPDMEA
T4 sequence (P02747 29-245, chain 3 of 3): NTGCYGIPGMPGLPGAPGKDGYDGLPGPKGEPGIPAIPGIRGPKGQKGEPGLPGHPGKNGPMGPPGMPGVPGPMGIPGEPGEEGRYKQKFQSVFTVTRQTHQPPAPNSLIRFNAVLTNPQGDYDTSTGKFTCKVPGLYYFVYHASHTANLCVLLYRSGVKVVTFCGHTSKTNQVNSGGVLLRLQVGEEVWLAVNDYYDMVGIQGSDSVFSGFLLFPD

| Binder | fold stronger binding than natural PD-1 (human PD-1-Fc) [1] | Kd (4-1BB antigen (abclon)) | koff (4-1BB antigen (abclon)) | kon (4-1BB antigen (abclon)) | Kd [2] | koff [2] | kon [2] | Kd [3] | koff [3] | binding result [4] | binding result [5] | kon [6] | EC50 (read off the curve) [7] | binding result [8] |
| --- | --- | --- | --- | --- | --- | --- | --- | --- | --- | --- | --- | --- | --- | --- |
| B1 | ~93 fold | 3.05 nM | 0.000634 s⁻¹ | 208000 M⁻¹ s⁻¹ | 5.07 nM | 0.00115 s⁻¹ | 227000 M⁻¹ s⁻¹ | 5.07 nM | 0.00115 s⁻¹ | no binding (tested: log10 2.0 ng/mL (100 ng/mL coated)) | no binding (tested: 2 ug/ml C1q) | 227000 M⁻¹ s⁻¹ | ~0.05 µg/mL |  |
| B2 |  |  |  |  |  |  |  |  |  |  |  |  |  | no binding (tested: log 1.7 ug/mL as drawn (about 50 ug/mL)) |
| B3 |  | 3.67 nM | 0.000658 s⁻¹ | 179000 M⁻¹ s⁻¹ | 4.06 nM | 0.00132 s⁻¹ | 324000 M⁻¹ s⁻¹ |  |  |  |  |  |  |  |
| B4 |  | 2.3 nM | 0.000601 s⁻¹ | 262000 M⁻¹ s⁻¹ | 3.73 nM | 0.00141 s⁻¹ | 377000 M⁻¹ s⁻¹ |  |  |  |  |  |  |  |
